Legend:
[1] = molecular target: T1, anti-CD70 CAR (SEQ ID NO: 7) on CAR T cells; test: flow cytometry, % CAR positive cells against antibody dilution on anti-CD70 CAR T cells
T1 construct: also called anti-CD70 CAR T cells
Method: (§1) The purified 15C04-02F03 antibody was analyzed by flow cytometry for binding to CAR T cells expressing the anti-BCMA CAR of SEQ ID NO: 6 (anti-BCMA CAR T cells). CAR T cells expressing an anti-CD70 CAR of SEQ ID NO: 7 (anti-CD70 CAR T cells) or an anti-CD19 CAR SEQ ID NO: 8 (anti-CD19 CAR T cells) were used as negative controls. Anti-BCMA-scFv antibody (15C04-02F03) was analyzed at various dilutions (FIG. 2).

[2] = molecular target: T2, anti-CD19 CAR (SEQ ID NO: 8) on CAR T cells; test: flow cytometry, % CAR positive cells against antibody dilution on anti-CD19 CAR T cells
T2 construct: also called anti-CD19 CAR T cells
Method: as §1

T1 sequence (chain, as listed by the source limits assumed): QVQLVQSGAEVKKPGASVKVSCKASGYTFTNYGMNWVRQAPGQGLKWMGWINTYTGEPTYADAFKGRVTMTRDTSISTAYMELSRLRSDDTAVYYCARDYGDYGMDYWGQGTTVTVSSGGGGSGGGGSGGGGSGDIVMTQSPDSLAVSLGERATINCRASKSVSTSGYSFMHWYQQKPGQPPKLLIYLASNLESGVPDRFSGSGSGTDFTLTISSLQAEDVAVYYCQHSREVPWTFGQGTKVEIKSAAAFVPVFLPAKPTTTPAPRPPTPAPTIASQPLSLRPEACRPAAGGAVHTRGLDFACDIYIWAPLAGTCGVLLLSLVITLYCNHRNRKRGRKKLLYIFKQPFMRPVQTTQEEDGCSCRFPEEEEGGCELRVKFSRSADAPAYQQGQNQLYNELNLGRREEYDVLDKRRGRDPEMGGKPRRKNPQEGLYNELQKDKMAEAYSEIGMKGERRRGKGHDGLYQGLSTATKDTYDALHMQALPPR

binding result [1]: no binding
binding result [2]: no binding
B1: mouse anti-BCMA-scFv monoclonal antibody 15C04-02F03 (antibody, mouse IgG1, kappa, V domains shown)
VH: QVQLQQPGAELVKPGTSVKLSCKASAYTFTNYWIHWVKQRPGQGLEWIGRIDPNSGDTKYNEKFKSKASLTVDKPSSTANMQLSSLTSEDSAVYYCTRWGDLHYYAMDYWGQGTSVTVSS
VL: DIVLTQSPASLAVSLGQRATISCQASESVSFTGTSLMHWYQQKPGQPPKLLIYRASNLDSGVPARFSGSGSESDFTLTIDPVEEDDAAVYYCMQSMEDPYTFGGGTKLEIKR
notes: also called Native 15C04-02F03; anti-BCMA-scFv-AJ-1.3-15C04-02F03

— US20220064335A1 (CRISPR THERAPEUTICS, published 2022)
